# Patent US20220177587A1, “METHODS AND USES OF VARIANT CD80 FUSION PROTEINS AND RELATED CONSTRUCTS” (Alpine Immune Sciences, Inc., priority 2018, published 2022)
# Like-named read-outs stand apart in the source and are kept apart here.
# Columns and labels:
# CD28 (human) [1] = molecular target: CD28 (human) (UniProt P10747)
# PD-L1 (human) [2] = molecular target: PD-L1 (human) (UniProt Q9NZQ7)
# Target sequence in this assay (Q9NZQ7 19-290): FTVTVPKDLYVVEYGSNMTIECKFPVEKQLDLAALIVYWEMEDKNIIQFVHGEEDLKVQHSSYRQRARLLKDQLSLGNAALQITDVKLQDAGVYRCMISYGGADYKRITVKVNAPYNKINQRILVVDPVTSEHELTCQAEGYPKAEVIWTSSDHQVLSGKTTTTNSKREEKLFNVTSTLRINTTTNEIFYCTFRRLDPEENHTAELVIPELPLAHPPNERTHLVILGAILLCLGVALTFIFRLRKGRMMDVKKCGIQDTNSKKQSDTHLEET
# CD28 (human) [3] = molecular target: CD28 (human) (UniProt P10747); remark: listed apart in the source
# CD28 (human) [4] = molecular target: CD28 (human) (UniProt P10747); assay: flow cytometry, Jurkat cells (CD28)
# PD-L1 (human) [5] = molecular target: PD-L1 (human) (UniProt Q9NZQ7); assay: flow cytometry, CHO cells expressing PD-L1
# Target sequence in this assay (Q9NZQ7 19-290): as above
# human CTLA-4 (human) [6] = molecular target: human CTLA-4 (human) (UniProt P16410); assay: flow cytometry, CHO cells expressing CTLA4
# Sequence of human CTLA-4 (human) (P16410 36-223): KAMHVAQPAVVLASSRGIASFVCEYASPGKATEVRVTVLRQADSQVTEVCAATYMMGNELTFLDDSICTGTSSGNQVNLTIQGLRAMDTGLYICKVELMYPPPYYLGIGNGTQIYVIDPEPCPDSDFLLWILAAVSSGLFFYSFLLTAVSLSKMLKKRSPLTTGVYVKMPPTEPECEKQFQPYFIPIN
# PD-L1 (human) [7] = molecular target: PD-L1 (human) (UniProt Q9NZQ7); assay: flow cytometry, MFI on PD-L1 over MFI on CD28
# Target sequence in this assay (Q9NZQ7 19-290): as the sequence (Q9NZQ7 19-290) above
# CD28 (human) [8] = molecular target: CD28 (human) (UniProt P10747); remark: listed apart in the source
# PD-L1 (human) [9] = molecular target: PD-L1 (human) (UniProt Q9NZQ7); remark: listed apart in the source
# Target sequence in this assay (Q9NZQ7 19-290 limits assumed): as the sequence (Q9NZQ7 19-290) above
# human CTLA-4 (human) [10] = molecular target: human CTLA-4 (human) (UniProt P16410); assay: flow cytometry, CHO cells stably expressing CTLA4
# PD-L1 (human) [11] = molecular target: PD-L1 (human) (UniProt Q9NZQ7); assay: flow cytometry, CHO cells stably expressing PD-L1
# Target sequence in this assay (Q9NZQ7 19-290): as above
# PD-L1 (human) [12] = molecular target: PD-L1 (human) (UniProt Q9NZQ7); assay: flow cytometry, MFI on PD-L1 cells over MFI on CD28 cells
# Target sequence in this assay (Q9NZQ7 19-290): as above
# CD28 (human) [13] = molecular target: CD28 (human) (UniProt P10747); assay: flow cytometry, Jurkat cells (CD28); remark: listed apart in the source
# PD-L1 (human) [14] = molecular target: PD-L1 (human) (UniProt Q9NZQ7); remark: listed apart in the source
# Target sequence in this assay (Q9NZQ7 19-290): as above
# PD-L1 (human) [15] = molecular target: PD-L1 (human) (UniProt Q9NZQ7); assay: flow cytometry, CHO cells expressing huPD-L1
# human CTLA-4 (human) [16] = molecular target: human CTLA-4 (human) (UniProt P16410); assay: flow cytometry, CHO cells expressing huCTLA4
# CD28 (human) [17] = molecular target: CD28 (human) (UniProt P10747); assay: flow cytometry, Jurkat/IL2 reporter cells (endogenous CD28)
substance,measurement,setting,value
CD80 E35D/M47L IgV-Fc (inert) (Fc fusion),"IL-2 release, primary T cells + K562/OKT3/PD-L1, 100 nM",CD28 (human) [1],7530
same,"IL-2 release, primary T cells + K562/OKT3/PD-L1, 100 nM",PD-L1 (human) [2],7530
same,"Jurkat/IL2 reporter RLU at 50 nM, CHO/OKT3 aAPC without PD-L1",CD28 (human) [3],817 RLU
CD80 H18Y/V22D/E35D/M47V/N48K/V68M IgV-Fc (Fc fusion),Fold change to WT CD80,CD28 (human) [4],8.2 fold
same,MFI at 33.3 nM,CD28 (human) [4],257 MFI
same,Fold change to WT CD80,PD-L1 (human) [5],250 fold
same,MFI at 33.3 nM,PD-L1 (human) [5],12900 MFI
same,Fold change to WT CD80,human CTLA-4 (human) [6],9 fold
same,MFI at 33.3 nM,human CTLA-4 (human) [6],15800 MFI
same,Ratio of PDL1:CD28,PD-L1 (human) [7],50.1
variant CD80 IgV-Fc H18Y/A26E/E35D/A71G/D90G (Fc fusion),"IL-2 luciferase reporter, fold increase over WT CD80-IgV-Fc at 5.0 nM",CD28 (human) [8],2.45 fold
same,"IL-2 luciferase reporter, fold increase over WT CD80-IgV-Fc at 5.0 nM",PD-L1 (human) [9],2.45 fold
same,Fold change to WT CD80,human CTLA-4 (human) [10],-0.1 fold
same,MFI at 33.3 nM,human CTLA-4 (human) [10],-100 MFI
same,Fold change to WT CD80,PD-L1 (human) [11],340 fold
same,MFI at 33.3 nM,PD-L1 (human) [11],14800 MFI
same,Ratio of PDL1:CD28,PD-L1 (human) [12],13.8
same,Fold change to WT CD80,CD28 (human) [13],24.5 fold
same,MFI at 33.3 nM,CD28 (human) [13],1080 MFI
CD80 A26E/E35D/M47L/L85Q IgV-Fc (inert) (Fc fusion),"IL-2 release, primary T cells + K562/OKT3/PD-L1, 100 nM",CD28 (human) [1],1460
same,"IL-2 release, primary T cells + K562/OKT3/PD-L1, 100 nM",PD-L1 (human) [2],1460
same,"Jurkat/IL2 reporter RLU at 50 nM, CHO/OKT3/PD-L1 aAPC",CD28 (human) [3],2000 RLU
same,"Jurkat/IL2 reporter RLU at 50 nM, CHO/OKT3 aAPC without PD-L1",CD28 (human) [3],432 RLU
same,"Jurkat/IL2 reporter RLU at 50 nM, CHO/OKT3/PD-L1 aAPC",PD-L1 (human) [14],2000 RLU
variant CD80 IgV-Fc E24D/Q33L/E35D/M47V/K54R/L85Q (Fc fusion),MFI at 33.3 nM,PD-L1 (human) [15],67100 MFI
same,MFI at 33.3 nM,human CTLA-4 (human) [16],311000 MFI
variant CD80 IgV-Fc A26E/E35D/V68M/A71G/D90G (Fc fusion),"IL-2 luciferase reporter, fold increase over WT CD80-IgV-Fc at 5.0 nM",CD28 (human) [8],2.34 fold
same,"IL-2 luciferase reporter, fold increase over WT CD80-IgV-Fc at 5.0 nM",PD-L1 (human) [9],2.34 fold
same,Fold change to WT CD80,human CTLA-4 (human) [10],17.1 fold
same,MFI at 33.3 nM,human CTLA-4 (human) [10],23300 MFI
same,Fold change to WT CD80,PD-L1 (human) [11],608 fold
same,MFI at 33.3 nM,PD-L1 (human) [11],26500 MFI
same,Ratio of PDL1:CD28,PD-L1 (human) [12],12.6
same,Fold change to WT CD80,CD28 (human) [13],47.9 fold
same,MFI at 33.3 nM,CD28 (human) [13],2100 MFI
CD80 E35D/M47I/L70M IgV-Fc (inert) (Fc fusion),"IL-2 release, primary T cells + K562/OKT3/PD-L1, 100 nM",CD28 (human) [1],8390
same,"IL-2 release, primary T cells + K562/OKT3/PD-L1, 100 nM",PD-L1 (human) [2],8390
same,"Jurkat/IL2 reporter RLU at 50 nM, CHO/OKT3/PD-L1 aAPC",CD28 (human) [3],2630 RLU
same,"Jurkat/IL2 reporter RLU at 50 nM, CHO/OKT3 aAPC without PD-L1",CD28 (human) [3],600 RLU
same,"Jurkat/IL2 reporter RLU at 50 nM, CHO/OKT3/PD-L1 aAPC",PD-L1 (human) [14],2630 RLU
variant CD80 IgV-Fc Q33L/E35D/M47V (Fc fusion),MFI at 33.3 nM,PD-L1 (human) [15],47900 MFI
same,MFI at 33.3 nM,human CTLA-4 (human) [16],47600 MFI
CD80 E23G/A26S/E35D/T62N/A71D/L72V/L85M IgV-Fc (inert) (Fc fusion),"IL-2 release, primary T cells + K562/OKT3/PD-L1, 100 nM",CD28 (human) [1],102
same,"IL-2 release, primary T cells + K562/OKT3/PD-L1, 100 nM",PD-L1 (human) [2],102
same,"Jurkat/IL2 reporter RLU at 50 nM, CHO/OKT3/PD-L1 aAPC",CD28 (human) [3],695 RLU
same,"Jurkat/IL2 reporter RLU at 50 nM, CHO/OKT3 aAPC without PD-L1",CD28 (human) [3],606 RLU
same,"Jurkat/IL2 reporter RLU at 50 nM, CHO/OKT3/PD-L1 aAPC",PD-L1 (human) [14],695 RLU
variant CD80 IgV-Fc E35D/M47I/K54R/L85E (Fc fusion),MFI at 33.3 nM,PD-L1 (human) [15],36900 MFI
same,MFI at 33.3 nM,human CTLA-4 (human) [16],8660 MFI
variant CD80 IgV-Fc H18Y/A26E/E35D/V68M/A71G/D90G (Fc fusion),"IL-2 luciferase reporter, fold increase over WT CD80-IgV-Fc at 5.0 nM",CD28 (human) [8],2.41 fold
same,"IL-2 luciferase reporter, fold increase over WT CD80-IgV-Fc at 5.0 nM",PD-L1 (human) [9],2.41 fold
same,Fold change to WT CD80,human CTLA-4 (human) [10],17.2 fold
same,MFI at 33.3 nM,human CTLA-4 (human) [10],23400 MFI
same,Fold change to WT CD80,PD-L1 (human) [11],658 fold
same,MFI at 33.3 nM,PD-L1 (human) [11],28700 MFI
same,Ratio of PDL1:CD28,PD-L1 (human) [12],16.3
same,Fold change to WT CD80,CD28 (human) [13],40 fold
same,MFI at 33.3 nM,CD28 (human) [13],1760 MFI
variant CD80 IgV-Fc Q33R/E35D/K37E/M47V/L85Q (Fc fusion),MFI at 33.3 nM,CD28 (human) [17],258 MFI
same,MFI at 33.3 nM,PD-L1 (human) [15],44400 MFI
CD80 A71D/L72V/E95K IgV-Fc (inert) (Fc fusion),"Jurkat/IL2 reporter RLU at 50 nM, CHO/OKT3/PD-L1 aAPC",CD28 (human) [3],755 RLU
same,"Jurkat/IL2 reporter RLU at 50 nM, CHO/OKT3 aAPC without PD-L1",CD28 (human) [3],644 RLU
same,"Jurkat/IL2 reporter RLU at 50 nM, CHO/OKT3/PD-L1 aAPC",PD-L1 (human) [14],755 RLU
CD80 E35D/M43I/M47L/V68M IgV-Fc (Fc fusion),Fold change to WT CD80,CD28 (human) [4],48.3 fold
same,MFI at 33.3 nM,CD28 (human) [4],1520 MFI
same,Fold change to WT CD80,PD-L1 (human) [5],328 fold
same,MFI at 33.3 nM,PD-L1 (human) [5],16900 MFI
same,Fold change to WT CD80,human CTLA-4 (human) [6],9.3 fold
same,MFI at 33.3 nM,human CTLA-4 (human) [6],16200 MFI
same,Ratio of PDL1:CD28,PD-L1 (human) [7],11.1
variant CD80 IgV-Fc H18Y/A26E/E35D/M47L/V68M/D90G (Fc fusion),"IL-2 luciferase reporter, fold increase over WT CD80-IgV-Fc at 5.0 nM",CD28 (human) [8],2.29 fold
same,"IL-2 luciferase reporter, fold increase over WT CD80-IgV-Fc at 5.0 nM",PD-L1 (human) [9],2.29 fold
same,Fold change to WT CD80,human CTLA-4 (human) [10],18.3 fold
same,MFI at 33.3 nM,human CTLA-4 (human) [10],24900 MFI
same,Fold change to WT CD80,PD-L1 (human) [11],578 fold
same,MFI at 33.3 nM,PD-L1 (human) [11],25200 MFI
same,Ratio of PDL1:CD28,PD-L1 (human) [12],9.4
same,Fold change to WT CD80,CD28 (human) [13],60.9 fold
same,MFI at 33.3 nM,CD28 (human) [13],2680 MFI
